This is an account of results in US20200339702A1 (ULTRAHUMAN THIRTEEN, published 2020).

Assay [1] addresses T1, human ERBB3 human Fc tagged recombinant protein (human, UniProt P21860 20-643).
T1 construct: also called human ERBB3-Fc; huERBB3
The experiment in a line: direct binding ELISA on coated human ERBB3-Fc, IgG1null titrated. As for the experimental part:
(§1) Binding and cross-reactivity of the lead panel to the recombinant proteins was initially assessed by binding ELISA. The human ERBB3 human Fc tagged recombinant protein and the rhesus monkey ERBB3 human Fc tagged recombinant protein were coated to the surface of MaxiSorp™ flat-bottom 96 well plate at 1 μg/ml. The purified IgG samples were titrated in two fold serial dilutions starting from 500 nM to 0.008 nM and allowed to bind to the coated antigens. The Fabs were detected using mouse anti-c-myc antibody followed by donkey anti-mouse IgG conjugated to horseradish peroxidase. The IgGs were detected using the mouse anti-human IgG conjugated to horseradish peroxidase. Binding signals were visualized with 3,3′,5,5′-Tetramethylbenzidine Substrate Solution (TMB) and the absorbance measured at 450 nm.

Assay [2] has as its target T2, rhesus monkey ERBB3 His tag, monomeric (rhesus monkey (Macaca mulatta), UniProt P21860 20-643 (human entry), limits assumed).
T2 chain: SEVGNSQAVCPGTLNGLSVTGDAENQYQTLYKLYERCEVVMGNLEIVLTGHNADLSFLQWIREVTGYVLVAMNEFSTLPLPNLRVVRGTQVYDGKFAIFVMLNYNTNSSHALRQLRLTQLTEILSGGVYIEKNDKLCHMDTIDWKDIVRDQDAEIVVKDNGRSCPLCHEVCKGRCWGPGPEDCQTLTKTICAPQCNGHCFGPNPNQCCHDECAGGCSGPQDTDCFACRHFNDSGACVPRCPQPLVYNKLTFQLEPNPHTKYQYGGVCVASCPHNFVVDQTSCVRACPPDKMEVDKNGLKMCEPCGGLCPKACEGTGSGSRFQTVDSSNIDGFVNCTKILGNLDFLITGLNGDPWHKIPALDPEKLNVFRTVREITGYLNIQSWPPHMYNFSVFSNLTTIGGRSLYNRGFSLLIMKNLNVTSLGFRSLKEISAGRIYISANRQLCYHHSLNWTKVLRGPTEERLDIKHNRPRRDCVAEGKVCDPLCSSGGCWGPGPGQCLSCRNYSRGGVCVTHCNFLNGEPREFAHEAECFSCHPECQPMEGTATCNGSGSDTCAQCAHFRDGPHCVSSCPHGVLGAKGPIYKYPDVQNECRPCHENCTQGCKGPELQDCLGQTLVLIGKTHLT
The experiment in a line: SPR (Biacore), captured IgG, monomeric ERBB3-His analyte.

For assay [3], the target named is T3, rhesus monkey ERBB3 human Fc tagged recombinant protein (rhesus monkey (Macaca mulatta), UniProt P21860 20-643 (human entry), limits assumed).
T3 construct: also called rhesus ERBB3-Fc; rhERBB3
T3 chain: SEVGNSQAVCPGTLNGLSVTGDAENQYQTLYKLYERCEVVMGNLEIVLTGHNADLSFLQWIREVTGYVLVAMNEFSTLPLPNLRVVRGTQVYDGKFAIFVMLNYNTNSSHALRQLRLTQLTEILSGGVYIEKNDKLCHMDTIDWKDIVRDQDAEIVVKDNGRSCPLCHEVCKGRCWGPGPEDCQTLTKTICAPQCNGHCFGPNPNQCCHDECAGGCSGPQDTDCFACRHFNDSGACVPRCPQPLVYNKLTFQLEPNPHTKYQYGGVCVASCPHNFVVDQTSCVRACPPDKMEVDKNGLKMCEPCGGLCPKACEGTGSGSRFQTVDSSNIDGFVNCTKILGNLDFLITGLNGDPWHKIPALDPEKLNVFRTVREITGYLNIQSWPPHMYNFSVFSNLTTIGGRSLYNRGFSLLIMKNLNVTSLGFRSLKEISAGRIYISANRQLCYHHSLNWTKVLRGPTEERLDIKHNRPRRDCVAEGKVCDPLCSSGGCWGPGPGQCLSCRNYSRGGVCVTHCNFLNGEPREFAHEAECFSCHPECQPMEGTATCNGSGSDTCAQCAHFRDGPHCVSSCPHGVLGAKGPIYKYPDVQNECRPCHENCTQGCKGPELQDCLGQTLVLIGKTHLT
The experiment in a line: direct binding ELISA on coated rhesus ERBB3-Fc, IgG1null titrated. As for the experimental part: as §1

For assay [4], the target named is T4, human ERBB3 His tagged, monomeric (human, UniProt P21860 20-643, biotinylated in the Alphascreen assays (sites not given)).
T4 construct: Used unbiotinylated as Biacore analyte and biotinylated in Alphascreen; treated as one molecule; also called human ERBB3-His (Acrobiosystems); biotinylated monomeric human ERBB3
The experiment in a line: SPR (Biacore). Here is the method:
Affinity (KD) of purified IgGs was determined via SPR with antigen in-solution on a Biacore® 3000 (GE). A mouse anti-human antibody (CH1 specific) was immobilized on a CM5 Sensor Chip to a level of 2000 RU in acetate buffer at pH 4.5 using amine coupling following the Wizard instructions for two channels. One channel was used for background signal correction. The standard running buffer HBS-EP pH 7.4 was used. Regeneration was performed with a single injection of 10 μl of 10 mM Glycine at pH 1.5 at […]. IgG samples were injected for 2 minutes at 50 nM at 30 μl/min followed by an off-rate of 60 seconds. The monomeric antigen (human ERBB3 His tagged or rhesus monkey ERBB3 His tag) was injected in two fold serial dilutions from 3 nM down to 0.2 nM, for 2 minutes at 30 μl/min followed by an off-rate of 300 seconds. The obtained sensorgrams were analysed using the Biacore® 3000 evaluation (BlAevaluation) software. The KD was calculated by simultaneous fitting of the association and dissociation phases to a 1:1 Langmuir binding model.

Assay [5] concerns the target T4, human ERBB3 His tagged, monomeric. The assay can be described thus: Alphascreen competition in solution, competitor h24C05 IgG1null, biotinylated human ERBB3-His. Here is the method:
The AlphaScreen assay (Perkin Elmer) was performed in a 25 μl final volume in 384-well white microtiter plates (Greiner). The reaction buffer contained 1×PBS pH 7.3 (Oxoid, Cat. nr. BR0014G) and 0.05% (v/v) Tween® 20 (Sigma, Cat. nr. P9416). Purified IgG samples were titrated in three fold serial dilutions starting at 100 nM final concentration and incubated with biotinylated human ERBB3-His (Acrobiosystems) at 1 nM final concentration for 20 minutes at room temperature. The parental IgG and the anti-human IgG1 Acceptor beads at were added and the mix was incubated for 1 hour at room temperature. Followed by addition of the Streptavidin Donor beads and incubation for 30 minutes at room temperature. The emission of light was measured in the EnVision multilabel plate reader (Perkin Elmer) and analysed using the EnVision manager software. Values were reported as Counts Per Second (CPS) and corrected for crosstalk.

B1: 09D12 IgG1null (antibody, V domains shown)
VH: QVQLVESGGGLVKPGGSLRLSCAASGFTFSDYGMSWIRQAPGKGLEWVSTISDGGSYTYYADSVKGRFTISRDNAKNSLYLQMNSLRAEDTAVYYCAREYGDYDGFDYWGQGTLVTVSS
VL: DIQMTQSPSSLSASVGDRVTITCRASQSISSYLNWYQQKPGKAPKLLIYAASSLDSGVPSRFSGSGSGTDFTLTISSLQPEDFATYYCLQYDSTPLTFGGGTKVEIK
notes: Human IgG1null and human Ckappa
Turning to B1, the “EC50 (read off the curve)” value in assay [1] was around 0.2 nM. In assay [2], this molecule displayed a Kd of 0.69 nM, a dissociation rate constant (koff) of 0.0074 s⁻¹ and a kon of 1.1e+07 M⁻¹ s⁻¹. The “EC50 (read off the curve)” value in assay [3] was around 0.1 nM.

B2: TTP IgG1null (antibody, V domains shown)
VH: QVQLVESGGGLVKPGGSLRLSCAASGFTFSDYGMSWIRQAPGKGLEWVSTISDSGSTIYYADSVKGRFTISRDNAKNSLYLQMNSLRAEDTAVYYCAREYGDYDGFDYWGQGTLVTVSS
VL: DIQMTQSPSSLSASVGDRVTITCRASQSISSYLNWYQQKPGKAPKLLIYAASSLQSGVPSRFSGSGSGTDFTLTISSLQPEDFATYYCLQYDSTPLTFGGGTKVEIK
notes: Designer clone; Human IgG1null and human Ckappa; also called Total Theoretically Possible clone
On to B2, for which the “EC50 (read off the curve)” value was around 0.3 nM in assay [1] and around 0.2 nM in assay [3]. Also, in assay [4], the “fold loss of KD against clone MH5” value is around 2 fold. Also, the “IC50 (read off the curve)” value in assay [5] is around 5 nM.
